This note sets out measurements from article PMC10713829 (2023).

This assay concerns the target HLA-A*01:01/hβ2m complex (empty, peptide-free or peptide-receptive) (human). Briefly: FP.

B1: NRAS_(55-64) wild-type (Q61) peptide (peptide)
peptide: ILDTAGQEEY
One may read the IC50 as the concentration at which inhibition is half-maximal. Regarding B1, half-maximal inhibition (IC50) required 278 nM.
